Measured values reported in publication PMC12416549 (2024).

B1: S80P (designed binder)
chain: SMEEEVEKAAKEYEKKKKEAIEKHLEKLKAKDKEAAERFLKELEEAAKEYAKDEAKTMSEEEAKRRAKKYKEKVLLSELPEEEQKEIKEAEEKLVRTILKYVEEAAK
B2: A106F (designed binder)
chain: SMEEEVEKAAKEYEKKKKEAIEKHLEKLKAKDKEAAERFLKELEEAAKEYAKDEAKTMSEEEAKRRAKKYKEKVLLSELSEEEQKEIKEAEEKLVRTILKYVEEAFK
B3: H24E (designed binder)
chain: SMEEEVEKAAKEYEKKKKEAIEKELEKLKAKDKEAAERFLKELEEAAKEYAKDEAKTMSEEEAKRRAKKYKEKVLLSELSEEEQKEIKEAEEKLVRTILKYVEEAAK
B4: K41R (designed binder)
chain: SMEEEVEKAAKEYEKKKKEAIEKHLEKLKAKDKEAAERFLRELEEAAKEYAKDEAKTMSEEEAKRRAKKYKEKVLLSELSEEEQKEIKEAEEKLVRTILKYVEEAAK
B5: K41C (designed binder)
chain: SMEEEVEKAAKEYEKKKKEAIEKHLEKLKAKDKEAAERFLCELEEAAKEYAKDEAKTMSEEEAKRRAKKYKEKVLLSELSEEEQKEIKEAEEKLVRTILKYVEEAAK
B6: E7C (designed binder)
chain: SMEEEVCKAAKEYEKKKKEAIEKHLEKLKAKDKEAAERFLKELEEAAKEYAKDEAKTMSEEEAKRRAKKYKEKVLLSELSEEEQKEIKEAEEKLVRTILKYVEEAAK
B7: K88G (designed binder)
chain: SMEEEVEKAAKEYEKKKKEAIEKHLEKLKAKDKEAAERFLKELEEAAKEYAKDEAKTMSEEEAKRRAKKYKEKVLLSELSEEEQKEIGEAEEKLVRTILKYVEEAAK
B8: A51L (designed binder)
chain: SMEEEVEKAAKEYEKKKKEAIEKHLEKLKAKDKEAAERFLKELEEAAKEYLKDEAKTMSEEEAKRRAKKYKEKVLLSELSEEEQKEIKEAEEKLVRTILKYVEEAAK
B9: E91S (designed binder)
chain: SMEEEVEKAAKEYEKKKKEAIEKHLEKLKAKDKEAAERFLKELEEAAKEYAKDEAKTMSEEEAKRRAKKYKEKVLLSELSEEEQKEIKEASEKLVRTILKYVEEAAK
B10: R38A (designed binder)
chain: SMEEEVEKAAKEYEKKKKEAIEKHLEKLKAKDKEAAEAFLKELEEAAKEYAKDEAKTMSEEEAKRRAKKYKEKVLLSELSEEEQKEIKEAEEKLVRTILKYVEEAAK
B11: K29M (designed binder)
chain: SMEEEVEKAAKEYEKKKKEAIEKHLEKLMAKDKEAAERFLKELEEAAKEYAKDEAKTMSEEEAKRRAKKYKEKVLLSELSEEEQKEIKEAEEKLVRTILKYVEEAAK
B12: T57G (designed binder)
chain: SMEEEVEKAAKEYEKKKKEAIEKHLEKLKAKDKEAAERFLKELEEAAKEYAKDEAKGMSEEEAKRRAKKYKEKVLLSELSEEEQKEIKEAEEKLVRTILKYVEEAAK
B13: I21H (designed binder)
chain: SMEEEVEKAAKEYEKKKKEAHEKHLEKLKAKDKEAAERFLKELEEAAKEYAKDEAKTMSEEEAKRRAKKYKEKVLLSELSEEEQKEIKEAEEKLVRTILKYVEEAAK
B14: K71E (designed binder)
chain: SMEEEVEKAAKEYEKKKKEAIEKHLEKLKAKDKEAAERFLKELEEAAKEYAKDEAKTMSEEEAKRRAKKYEEKVLLSELSEEEQKEIKEAEEKLVRTILKYVEEAAK
B15: Q84R (designed binder)
chain: SMEEEVEKAAKEYEKKKKEAIEKHLEKLKAKDKEAAERFLKELEEAAKEYAKDEAKTMSEEEAKRRAKKYKEKVLLSELSEEERKEIKEAEEKLVRTILKYVEEAAK
B16: K69A (designed binder)
chain: SMEEEVEKAAKEYEKKKKEAIEKHLEKLKAKDKEAAERFLKELEEAAKEYAKDEAKTMSEEEAKRRAKAYKEKVLLSELSEEEQKEIKEAEEKLVRTILKYVEEAAK
B17: E7R (designed binder)
chain: SMEEEVRKAAKEYEKKKKEAIEKHLEKLKAKDKEAAERFLKELEEAAKEYAKDEAKTMSEEEAKRRAKKYKEKVLLSELSEEEQKEIKEAEEKLVRTILKYVEEAAK
B18: K71Q (designed binder)
chain: SMEEEVEKAAKEYEKKKKEAIEKHLEKLKAKDKEAAERFLKELEEAAKEYAKDEAKTMSEEEAKRRAKKYQEKVLLSELSEEEQKEIKEAEEKLVRTILKYVEEAAK
B19: L76D (designed binder)
chain: SMEEEVEKAAKEYEKKKKEAIEKHLEKLKAKDKEAAERFLKELEEAAKEYAKDEAKTMSEEEAKRRAKKYKEKVLDSELSEEEQKEIKEAEEKLVRTILKYVEEAAK
B20: K16A (designed binder)
chain: SMEEEVEKAAKEYEKAKKEAIEKHLEKLKAKDKEAAERFLKELEEAAKEYAKDEAKTMSEEEAKRRAKKYKEKVLLSELSEEEQKEIKEAEEKLVRTILKYVEEAAK
B21: I98W (designed binder)
chain: SMEEEVEKAAKEYEKKKKEAIEKHLEKLKAKDKEAAERFLKELEEAAKEYAKDEAKTMSEEEAKRRAKKYKEKVLLSELSEEEQKEIKEAEEKLVRTWLKYVEEAAK
B22: D32A (designed binder)
chain: SMEEEVEKAAKEYEKKKKEAIEKHLEKLKAKAKEAAERFLKELEEAAKEYAKDEAKTMSEEEAKRRAKKYKEKVLLSELSEEEQKEIKEAEEKLVRTILKYVEEAAK
B23: K56M (designed binder)
chain: SMEEEVEKAAKEYEKKKKEAIEKHLEKLKAKDKEAAERFLKELEEAAKEYAKDEAMTMSEEEAKRRAKKYKEKVLLSELSEEEQKEIKEAEEKLVRTILKYVEEAAK
B24: A67H (designed binder)
chain: SMEEEVEKAAKEYEKKKKEAIEKHLEKLKAKDKEAAERFLKELEEAAKEYAKDEAKTMSEEEAKRRHKKYKEKVLLSELSEEEQKEIKEAEEKLVRTILKYVEEAAK
B25: I21P (designed binder)
chain: SMEEEVEKAAKEYEKKKKEAPEKHLEKLKAKDKEAAERFLKELEEAAKEYAKDEAKTMSEEEAKRRAKKYKEKVLLSELSEEEQKEIKEAEEKLVRTILKYVEEAAK
B26: Y50D (designed binder)
chain: SMEEEVEKAAKEYEKKKKEAIEKHLEKLKAKDKEAAERFLKELEEAAKEDAKDEAKTMSEEEAKRRAKKYKEKVLLSELSEEEQKEIKEAEEKLVRTILKYVEEAAK
B27: A20G (designed binder)
chain: SMEEEVEKAAKEYEKKKKEGIEKHLEKLKAKDKEAAERFLKELEEAAKEYAKDEAKTMSEEEAKRRAKKYKEKVLLSELSEEEQKEIKEAEEKLVRTILKYVEEAAK
B28: E42G (designed binder)
chain: SMEEEVEKAAKEYEKKKKEAIEKHLEKLKAKDKEAAERFLKGLEEAAKEYAKDEAKTMSEEEAKRRAKKYKEKVLLSELSEEEQKEIKEAEEKLVRTILKYVEEAAK
B29: E62R (designed binder)
chain: SMEEEVEKAAKEYEKKKKEAIEKHLEKLKAKDKEAAERFLKELEEAAKEYAKDEAKTMSEERAKRRAKKYKEKVLLSELSEEEQKEIKEAEEKLVRTILKYVEEAAK
B30: A90R (designed binder)
chain: SMEEEVEKAAKEYEKKKKEAIEKHLEKLKAKDKEAAERFLKELEEAAKEYAKDEAKTMSEEEAKRRAKKYKEKVLLSELSEEEQKEIKEREEKLVRTILKYVEEAAK
B31: V95E (designed binder)
chain: SMEEEVEKAAKEYEKKKKEAIEKHLEKLKAKDKEAAERFLKELEEAAKEYAKDEAKTMSEEEAKRRAKKYKEKVLLSELSEEEQKEIKEAEEKLERTILKYVEEAAK
B32: K16N (designed binder)
chain: SMEEEVEKAAKEYEKNKKEAIEKHLEKLKAKDKEAAERFLKELEEAAKEYAKDEAKTMSEEEAKRRAKKYKEKVLLSELSEEEQKEIKEAEEKLVRTILKYVEEAAK
B33: K11C (designed binder)
chain: SMEEEVEKAACEYEKKKKEAIEKHLEKLKAKDKEAAERFLKELEEAAKEYAKDEAKTMSEEEAKRRAKKYKEKVLLSELSEEEQKEIKEAEEKLVRTILKYVEEAAK
B34: E89V (designed binder)
chain: SMEEEVEKAAKEYEKKKKEAIEKHLEKLKAKDKEAAERFLKELEEAAKEYAKDEAKTMSEEEAKRRAKKYKEKVLLSELSEEEQKEIKVAEEKLVRTILKYVEEAAK
B35: L99T (designed binder)
chain: SMEEEVEKAAKEYEKKKKEAIEKHLEKLKAKDKEAAERFLKELEEAAKEYAKDEAKTMSEEEAKRRAKKYKEKVLLSELSEEEQKEIKEAEEKLVRTITKYVEEAAK

Molecular target: T1, TNFR1 (Homo sapiens, UniProt P19438)
T1 chain: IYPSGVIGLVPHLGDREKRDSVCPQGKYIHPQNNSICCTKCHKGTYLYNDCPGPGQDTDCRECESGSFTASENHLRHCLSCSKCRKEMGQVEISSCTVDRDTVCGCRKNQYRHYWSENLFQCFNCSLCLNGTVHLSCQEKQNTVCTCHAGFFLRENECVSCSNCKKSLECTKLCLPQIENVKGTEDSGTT
Assay: yeast display SC50

Binder	apparent Kd (screen)
B1	0.446 nM
B2	13.8 nM
B3	0.49 nM
B4	0.869 nM
B5	0.49 nM
B6	6.43 nM
B7	0.49 nM
B8	2.73 nM
B9	10.4 nM
B10	2.73 nM
B11	0.869 nM
B12	10.4 nM
B13	1.05 nM
B14	2.73 nM
B15	1.4 nM
B16	0.49 nM
B17	5.84 nM
B18	0.446 nM

Binder	apparent Kd (screen)
B19	1.16 nM
B20	2.73 nM
B21	1.86 nM
B22	1.4 nM
B23	0.718 nM
B24	10.4 nM
B25	13.8 nM
B26	7.78 nM
B27	2.73 nM
B28	12.5 nM
B29	0.49 nM
B30	0.446 nM
B31	11.4 nM
B32	0.335 nM
B33	1.69 nM
B34	2.73 nM
B35	5.31 nM
